From patent publication US20210047410A1 (ONCOLMMUNE, published 2021)
Positions count from the first letter of the chain named. One block for each molecule: values may come before it.

Columns and labels:
[1] = target: OFP-tagged human CTLA-4 on CHO cells (human) (UniProt P16410)
[2] = target: human CTLA-4 on or in cells (T cells of Ctla4 h/h knock-in mice; CHO stable lines and 293T cells expressing hCTLA-4) (human) (UniProt P16410); assay: cell-based or functional assay
[3] = target: human CTLA-4-Fc (human) (UniProt P16410); assay: competition ELISA; hB7-2-Fc coated, biotinylated CTLA-4-Fc at […]
[4] = target: human CTLA-4-Fc (human) (UniProt P16410); assay: competition ELISA; hB7-1-Fc coated at 0.5 µg/ml, biotinylated CTLA-4-Fc at […]
[5] = target: human CTLA-4-Fc (human) (UniProt P16410); assay: BLI (Octet Red96); antibody on anti-hIgG-Fc biosensor, antigen in solution from 600 nM
[6] = target: human CTLA-4-Fc (human) (UniProt P16410); assay: ELISA: antibody coated at varying doses, biotinylated CTLA-4-Fc at […], streptavidin-HRP
[7] = target: human CTLA-4-Fc (human) (UniProt P16410); assay: competition ELISA: B7-2-Fc immobilized (blocked ligand), biotinylated CTLA-4-Fc at […], antibody varied
[8] = target: human CTLA-4-Fc (human) (UniProt P16410); assay: competition ELISA: hCTLA-4-Fc coated at 1 µg/ml, blocked ligand biotinylated hB7-1-Fc at […], antibody varied
[9] = target: human CTLA-4-Fc (human) (UniProt P16410); assay: flow cytometry, competition: 200 ng hCTLA-4-Fc on CHO cells expressing mouse B7-1 (blocked ligand), antibody varied
[10] = target: human CTLA-4-Fc (human) (UniProt P16410); assay: competition ELISA: hCTLA-4-Ig immobilized at […], blocked ligand biotinylated hB7-1-Fc at […], antibody varied, avidin-HRP
[11] = target: human CTLA-4-Fc (human) (UniProt P16410); assay: flow cytometry, competition: biotinylated CTLA-4-Fc on CHO cells expressing hB7-1 (blocked ligand), antibody varied, PE-streptavidin
[12] = target: human CTLA-4-Fc (human) (UniProt P16410); assay: flow cytometry, competition: biotinylated CTLA-4-Fc on CHO cells expressing mB7-2 (blocked ligand), antibody varied, PE-streptavidin
[13] = target: human CTLA-4-Fc (human) (UniProt P16410); assay: flow cytometry, competition: biotinylated CTLA-4-Fc 200 ng/test on hB7-1-positive, FcR-negative L929 cells (blocked ligand), antibody varied, PE-streptavidin
[14] = target: polyhistidine tagged human CTLA-4 (human) (UniProt P16410); assay: flow cytometry, competition: 200 ng biotinylated polyhistidine-tagged CTLA-4 on CHO cells expressing human B7-1 (blocked ligand), antibody varied, PE-streptavidin
[15] = target: T1, Recombinant mouse Ctla-4Fc protein (mouse, UniProt P09793 36-162, limits assumed); assay: competition ELISA: B7-1 coated (blocked ligand), biotinylated mouse Ctla-4-Fc, antibody varied, avidin-HRP
T1 construct: Bought; also called biotinylated mouse Ctla-4-Fc; not shown: Fc part; not described

[16] = target: T1, Recombinant mouse Ctla-4Fc protein; assay: competition ELISA: B7-2 coated (blocked ligand), biotinylated mouse Ctla-4-Fc, antibody varied, avidin-HRP
[17] = target: mouse Ctla-4 in cells (spleen CD3+CD4+ cells of Ctla4 m/m mice) (mouse) (UniProt P09793); assay: cell-based or functional assay
[18] = target: T1, Recombinant mouse Ctla-4Fc protein; assay: competition ELISA: mB7-2 coated (blocked ligand), biotinylated mouse Ctla-4-Fc, antibody varied
[19] = target: T1, Recombinant mouse Ctla-4Fc protein; assay: ELISA, binding to soluble mouse Ctla-4-Fc; neither sheet nor legend says which component's concentration is on the axis
[20] = target: T1, Recombinant mouse Ctla-4Fc protein; assay: ELISA: plate bound mouse Ctla-4-Fc, antibody varied
[21] = target: human CTLA-4-Fc (human) (UniProt P16410); assay: BLI (Octet Red96)
[22] = target: polyhistidine tagged human CTLA-4 (human) (UniProt P16410); assay: ELISA; His-hCTLA-4 coated at 0.5 µg/ml, varying antibody doses

Sequence of polyhistidine tagged human CTLA-4 (human) (P16410 36-162 limits assumed): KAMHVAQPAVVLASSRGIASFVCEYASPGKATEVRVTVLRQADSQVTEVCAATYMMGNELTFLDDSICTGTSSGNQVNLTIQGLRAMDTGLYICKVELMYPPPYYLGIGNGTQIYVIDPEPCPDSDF
Sequence of OFP-tagged human CTLA-4 on CHO cells (human) (P16410 36-223): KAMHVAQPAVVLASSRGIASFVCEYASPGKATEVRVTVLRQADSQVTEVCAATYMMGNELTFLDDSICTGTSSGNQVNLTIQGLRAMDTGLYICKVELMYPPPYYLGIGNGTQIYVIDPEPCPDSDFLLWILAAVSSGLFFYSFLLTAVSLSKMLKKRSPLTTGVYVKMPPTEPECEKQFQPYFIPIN
Sequence of human CTLA-4-Fc (human) (P16410 37-161 limits assumed): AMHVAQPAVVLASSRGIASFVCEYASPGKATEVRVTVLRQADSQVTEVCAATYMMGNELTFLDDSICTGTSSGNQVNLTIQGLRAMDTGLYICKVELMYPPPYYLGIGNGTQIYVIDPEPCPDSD
Sequence of human CTLA-4 on or in cells (T cells of Ctla4 h/h knock-in mice; CHO stable lines and 293T cells expressing hCTLA-4) (human) (P16410 36-223): as the sequence (P16410 36-223) above

Molecule: B7-H2-GFP on transfected P815 cells (ligand)
% GFP+OFP+ cells (upper right quadrant), Mix-0 h [1]: 0.19%
% GFP+OFP+ cells (upper right quadrant), Mix-1 h [1]: 0.3%
% GFP+OFP+ cells (upper right quadrant), Mix-4 h [1]: 0.49%

Molecule: L3D10 chimera antibody (human IgG1 Fc and the variable regions of mouse anti-human CTLA-4 mAb L3D10)
level of hB7-2 on DC of human CD34+ reconstituted NSG mice [2]: 2.5 fold
IC50 [3]: 0.1 µg/mL
IC50 [4]: 3 µg/mL
lowest concentration with significant blocking [4]: 0.2 µg/mL
Kd [5]: 2.3 nM
EC50 (read off the curve) [6]: 1 µg/mL
IC50 (read off the curve) [7]: 0.1 µg/mL
IC50 (read off the curve) [8]: 0.2 µg/mL
IC50 (read off the curve) [9]: 1 µg/mL
IC50 (read off the curve) [10]: 0.4 µg/mL
IC50 (read off the curve) [11]: 8 µg/mL
IC50 (read off the curve) [12]: 0.9 µg/mL
IC50 (read off the curve) [13]: 1 µg/mL
IC50 (read off the curve) [14]: 2 µg/mL

B1: anti-mouse Ctla-4 mAb 9D9 (antibody, V domains shown)
VH: EAKLQESGPVLVKPGASVKMSCKASGYTFTDYYMNWVKQSHGKSLEWIGVINPYNGDTSYNQKFKGKATLTVDKSSSTAYMELNSLTSEDSAVYYCARYYGSWFAYWGQGTLITVST
VL: DIVMTQTTLSLPVSLGDQASISCRSSQSIVHSNGNTYLEWYLQKPGQSPKLLIYKVSNRFSGVPDRFSGSGSGTDFTLKISRVEAEDLGVYYCFQGSHVPYTFGGGTKLEIK
level of mB7-1 on DC of WT mice [17]: 15%
IC50 (read off the curve) [18]: ~2 µg/mL
EC50 (read off the curve) [19]: ~0.4 µg/mL

B2: anti-mouse Ctla-4 mAb 9H10 (antibody, from another filing)
scFv: YPYDVPDYAGAQPARSDIVMTQSPSSLAVSVGEKVTISCKSSQSLLYGSSHYLAWYQQKVGQSPKLLIYWASTRHTGIPDRFIGSGSGTDFTLSLSSVQAEDMADYFCQQYFSTPWTFGAGTRVEIKSGSGGGSGGGSGGGSQVQLLQSESELVKPGASVKLSCKTSGYTFTDYYIHWVKQKPGQGLEWIGLINPNNDGTNYNQKFQGKATLTADKSSSTAYMELNSLTFDDSVIYFCARASSRLRMARTTSDYYAMDYWGQGIQVTVSSVDSSGSGGCKPCICTVPEVSSVFIFPPKPKDVLTITLTPKVTCVVVDISKDDPEVQFSWFVDDVEVHTAQTQPREEQFNSTFRSVSELPIMHQDWLNGKEFKCRVNSAAFPAPIEKTISKTKGRPKAPQVYTIPPPKEQMAKDKVSLTCMITDFFPEDITVEWQWNGQPAENYKNTQPIMDTDGSYFVYSKLNVQKSNWEAGNTFTCSVLHEGLHNHHTEKSLSHSPGK
EC50 (read off the curve) [20]: 1 µg/mL

B4: HL32 (humanized L3D10 clone) (antibody, from another filing, V domains shown)
VH: QVQLQESGPGLVKPSETLSLTCTVSGFSLTSYGLSWIRQPPGKGLEWIGYIWYDGNTNFHSPLKSRVTISVDTSKNQFSLKLSSVTAADTAVYYCAKTEGHYYGSNYGYYALDYWGQGTLVTVSS
VL: DIQMTQSPSSLSASVGDRVTITCRASENIYSNLAWYQQKQGKAPKLLLYAATNLQDGVPSRFSGSGSGTDYTLTISSLQPEDFATYFCQHLWGTPYTFGQGTKLEIK
fold increase in off-rate against L3D10 [21]: 4 fold
fold reduction of binding at pH 4.5 against pH 7.0 (by increase of IC50) [22]: > 100 fold
fold reduction of binding at pH 5.5 against pH 7.0 (by increase of IC50) [22]: > 10 fold
Kd [5]: 7.1 nM
koff [5]: 0.0019 s⁻¹
kon [5]: 270000 M⁻¹ s⁻¹

Now from value to molecule:

IC50 (read off the curve) [15]: 1 µg/mL
IC50 (read off the curve) [16]: 0.3 µg/mL
Molecule: hamster anti-mouse Ctla-4 mAb 4F10 (antibody)

fold increase in off-rate against L3D10 [21]: 4 fold
fold reduction of binding at pH 4.5 against pH 7.0 (by increase of IC50) [22]: > 100 fold
fold reduction of binding at pH 5.5 against pH 7.0 (by increase of IC50) [22]: > 10 fold
Kd [5]: 7.2 nM
koff [5]: 0.0016 s⁻¹
kon [5]: 230000 M⁻¹ s⁻¹
B3: HL12 (humanized L3D10 clone) (antibody, from another filing, V domains shown)
VH: B4 VH with S61P, P62S, V71K, L120S
VL: B4 VL
